In patent US20200131274A1 (CRESCENDO BIOLOGICS, published 2020):
Numbering of substitutions follows the chain as printed. Names and notes keep the numbering of the source.

B1: single VH domain antibody 2.17 (VHH)
VHH: EVQLVESGGGVVQPGRSLRLSCAASGFSFSGYGMHWVRQAPGKGLEWVAYISYDASNKYYADNVKGRFTISRDNSKNTLYLQMNSLRAEDTAVYYCAKDPAWGLRLGESSSYDFDIWGQGTMVTVSS
notes: Human single VH domain antibody (Humabody); C-terminal His tag, residues not tied
B2: single VH domain antibody 1.11 (VHH)
VHH: EVQLLESGGGLVQPGGSLRLSCAASGFSFSSYALSWVRQAPGKGLEWVSSIGENNDTTDYADNVKGRFTISRDNSKNTLYLQMNSLRVEDTAVYYCVKDGVHWGQGTLVTVSS
notes: Human single VH domain antibody (Humabody)
B3: single VH domain antibody 1.16 (VHH)
VHH: B2 VHH with D56H, N63T
notes: as for B2
B4: single VH domain antibody 1.18 (VHH)
VHH: B2 VHH with D56A, D62A, N63S
notes: as for B2
B5: 1.11-6GS-2.1 (bispecific antibody)
chain: EVQLLESGGGLVQPGGSLRLSCAASGFSFSSYALSWVRQAPGKGLEWVSSIGENNDTTDYADNVKGRFTISRDNSKNTLYLQMNSLRVEDTAVYYCVKDGVHWGQGTLVTVSSGGGGSGGGGSGGGGSGGGGSGGGGSGGGGSEVQLVESGGGVVQPGRSLRLSCAASGFSFSGYGMHWVRQAPGKGLEWVAYISYDGSNKYYADSVKGRFTISRDNSKNTLYLQMNSLRAEDTAVYYCAKDPAWGLRLGESSSYDFDIWGQGTMVTVSS
notes: linker (G4S)6; also called 1.11-2.1
B6: 1.18-6GS-2.17 (bispecific antibody)
chain: B5 chain with D56A, D62A, N63S, G198A, S206N
notes: linker (G4S)6
B7: 1.18-6GS-2.22 (bispecific antibody)
chain: B5 chain with D56A, D62A, N63S, M177T, D205A, S206P, P243A
notes: linker (G4S)6
B8: 1.16-6GS-2.17 (bispecific antibody)
chain: B5 chain with D56H, N63T, G198A, S206N
notes: linker (G4S)6
B9: 1.11-6GS-2.17 (bispecific antibody)
chain: B5 chain with G198A, S206N
notes: linker (G4S)6
B10: 1.16-6GS-2.22 (bispecific antibody)
chain: B5 chain with D56H, N63T, M177T, D205A, S206P, P243A
notes: linker (G4S)6
B11: 1.16-6GS-2.1 (bispecific antibody)
chain: B5 chain with D56H, N63T
notes: linker (G4S)6
B12: 1.18-6GS-2.1 (bispecific antibody)
chain: B5 chain with D56A, D62A, N63S
notes: linker (G4S)6
B13: HiPEG B-2-A-His6 val-cit-PAB-MMAE (bispecific antibody)
chain: B5 chain with L34M, N55D, D56G, N63S, N77S, T78M
modifications: HiPEG val-cit-PAB-MMAE attached via the C-terminal His6-tag, DAR 1
B14: HiPEG D-His6 val-cit-PAB-MMAE (VHH)
VHH: EVQLLESGGGLVQPGGSLRLSCAASGFRISDEDMGWVRQAPGKGLEWVSSIYGPSGSTYYADSVKGRFTISRDNSKNTLYLQMNSLRAEDTAVYYCASALEPLSEPLGFWGQGTLVTVSS
modifications: HiPEG val-cit-PAB-MMAE attached via the C-terminal His6-tag
B15: 2.10 (VHH)
VHH: B1 VHH with S28T, A55G, K58R, N63S, N77K, Y80S
notes: On the sheet it is the filled up triangle; also called single VH domain antibody 2.10

Molecular target: T1, human prostate specific membrane antigen (PSMA), full-length, on cells (human, UniProt Q04609 1-750)
T1 sequence (Q04609 whole entry): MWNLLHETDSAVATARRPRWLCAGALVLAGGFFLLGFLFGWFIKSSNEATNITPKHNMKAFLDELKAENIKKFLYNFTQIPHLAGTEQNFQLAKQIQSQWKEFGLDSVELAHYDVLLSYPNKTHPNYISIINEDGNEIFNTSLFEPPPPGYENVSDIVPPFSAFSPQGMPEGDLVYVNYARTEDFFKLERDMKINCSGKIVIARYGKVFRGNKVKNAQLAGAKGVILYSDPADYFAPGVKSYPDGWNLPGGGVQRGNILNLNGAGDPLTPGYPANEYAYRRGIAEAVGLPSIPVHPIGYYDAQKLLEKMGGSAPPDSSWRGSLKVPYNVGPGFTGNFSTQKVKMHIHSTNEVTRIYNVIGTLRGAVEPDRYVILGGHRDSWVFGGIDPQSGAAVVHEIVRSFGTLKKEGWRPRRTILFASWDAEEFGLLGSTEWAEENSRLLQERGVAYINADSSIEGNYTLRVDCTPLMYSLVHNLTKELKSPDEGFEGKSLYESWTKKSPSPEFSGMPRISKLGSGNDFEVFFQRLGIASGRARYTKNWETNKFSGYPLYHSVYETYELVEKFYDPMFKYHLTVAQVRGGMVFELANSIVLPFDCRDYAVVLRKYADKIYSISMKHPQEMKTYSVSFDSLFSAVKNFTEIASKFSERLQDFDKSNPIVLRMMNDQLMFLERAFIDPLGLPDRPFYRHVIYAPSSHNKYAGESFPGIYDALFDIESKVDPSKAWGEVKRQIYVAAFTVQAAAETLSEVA
Experiment: cell-based or functional assay

| Binder | pHrodo Green internalization assay, human PSMA Average EC50 (M) |
| --- | --- |
| B1 | 8e-10 |
| B2 | 3.7e-10 |
| B3 | 4.8e-10 |
| B4 | 3.1e-10 |

Molecular target: T1, human prostate specific membrane …
Experiment: cell-based or functional assay
Remark: another data set of the same source

| Binder | His-ZAP cell killing, human PSMA Average EC50 [pM] |
| --- | --- |
| B5 | 17 |
| B6 | 12 |
| B7 | 15 |
| B8 | 15 |
| B9 | 7.9 |
| B10 | 20 |
| B11 | 14 |
| B12 | 5.7 |
| B1 | 35 |
| B2 | 14 |
| B3 | 17 |
| B4 | 23 |

Molecular target: T2, cynomolgus PSMA, full-length, on CHO cells (cynomolgus, UniProt A0A2K5VNZ0 1-750)
Experiment: cell-based or functional assay

| Binder | His-ZAP cell killing, cyno PSMA Average EC50 [pM] | His-ZAP cell killing, cyno PSMA EC50 [pM] |
| --- | --- | --- |
| B5 | 12 |  |
| B6 | 5.6 |  |
| B7 | 14 |  |
| B8 | 11 |  |
| B9 | 8.1 |  |
| B10 | 11 |  |
| B11 | 13 |  |
| B12 | 5.8 |  |
| B1 |  | 70 |
| B2 |  | 410 |
| B3 |  | 420 |
| B4 |  | 480 |

Molecular target: T1, human prostate specific membrane …
Experiment: cell-based or functional assay
Remark: another data set of the same source

| Binder | IC50 Toxin (nM), DU145 PSMA cells, 48 h [nM] | Mean IC50, cytotoxicity on DU145 PSMA cells, 48 h [pM] | Mean Max % Cell kill, DU145 PSMA cells, 48 h [%] |
| --- | --- | --- | --- |
| B13 | 0.15 | 150 | 79 |
| B14 |  | > 300000 |  |

Molecular target: T1, human prostate specific membrane …
Experiment: cell-based or functional assay
Remark: another data set of the same source

| Binder | IC50 (nM), PSMA-DU145 cytotoxicity assay (72 h) [nM] | IC50 (toxin) (nM), PSMA-DU145 cytotoxicity assay (72 h) [nM] |
| --- | --- | --- |
| B13 | 0.27 | 0.27 |
| B14 | > 100 | > 100 |

Molecular target: T1, human prostate specific membrane …
Experiment: FMAT direct cell binding, LNCap cells

| Binder | EC50 [pM] |
| --- | --- |
| B1 | 11.3 |
| B2 | 119 |
| B3 | 75.4 |
| B4 | 42.4 |

Molecular target: T1, human prostate specific membrane …
Experiment: FMAT direct cell binding, DU145 PSMA cells

| Binder | EC50 [pM] |
| --- | --- |
| B1 | 218 |
| B2 | 76 |
| B3 | 59.4 |
| B4 | 49.5 |

Molecular target: T2, cynomolgus PSMA, full-length, on CHO …
Experiment: FMAT direct cell binding, CHO cyno PSMA cells

| Binder | EC50 [pM] |
| --- | --- |
| B1 | 308 |
| B2 | 217 |
| B3 | 146 |
| B4 | 124 |

Molecular target: T1, human prostate specific membrane …
Experiment: FMAT direct cell binding, CHO human PSMA cells

| Binder | EC50 [pM] |
| --- | --- |
| B1 | 100 |
| B2 | 86.3 |
| B3 | 68 |
| B4 | 58.6 |

Molecular target: T1, human prostate specific membrane …
Experiment: FMAT direct cell binding, human PSMA-CHO cells

| Binder | EC50 [pM] |
| --- | --- |
| B5 | 287 |
| B6 | 278 |
| B7 | 196 |
| B8 | 333 |
| B9 | 280 |
| B10 | 225 |
| B11 | 306 |
| B12 | 294 |

Molecular target: T3, recombinant human PSMA (R&D, cat. no. 4234-ZN) (human, UniProt Q04609 44-750)
T3 construct: Bought protein; also called rhPSMA; Recombinant PMSA
T3 sequence (Q04609 44-750 limits assumed): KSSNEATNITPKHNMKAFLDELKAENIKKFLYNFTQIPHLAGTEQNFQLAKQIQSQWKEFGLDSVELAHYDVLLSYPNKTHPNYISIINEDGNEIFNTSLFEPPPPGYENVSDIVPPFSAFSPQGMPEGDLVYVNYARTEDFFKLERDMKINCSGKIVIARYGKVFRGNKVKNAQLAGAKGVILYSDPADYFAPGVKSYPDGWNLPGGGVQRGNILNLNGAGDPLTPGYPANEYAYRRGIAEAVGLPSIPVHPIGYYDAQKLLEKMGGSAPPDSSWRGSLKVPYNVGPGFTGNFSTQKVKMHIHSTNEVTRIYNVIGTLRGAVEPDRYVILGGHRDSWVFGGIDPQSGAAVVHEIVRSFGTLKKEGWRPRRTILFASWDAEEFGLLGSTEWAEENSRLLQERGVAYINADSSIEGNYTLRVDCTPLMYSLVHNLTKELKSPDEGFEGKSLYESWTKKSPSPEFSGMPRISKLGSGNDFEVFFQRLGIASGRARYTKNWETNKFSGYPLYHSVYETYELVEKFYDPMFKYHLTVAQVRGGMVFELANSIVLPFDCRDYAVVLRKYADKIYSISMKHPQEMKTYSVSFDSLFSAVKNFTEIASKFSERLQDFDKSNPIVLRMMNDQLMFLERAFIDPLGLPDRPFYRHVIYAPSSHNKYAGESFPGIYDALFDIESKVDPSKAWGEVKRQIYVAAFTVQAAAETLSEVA
Experiment: Octet RED384 BLI, PSMA on sensor, VH series from 0.375 ug/ml

| Binder | Kd [pM] | koff [s⁻¹] |
| --- | --- | --- |
| B2 | 800 | 0.000495 |
| B3 | 440 | 0.000365 |
| B4 | 590 | 0.000572 |

Molecular target: T3, recombinant human PSMA (R&D, cat. no. …)
Experiment: as above
Remark: another data set of the same source

| Binder | Kd [pM] | koff [s⁻¹] |
| --- | --- | --- |
| B1 | 760 | 0.000726 |

Molecular target: T1, human prostate specific membrane …
Experiment: FMAT cell binding, huPSMA CHO cells, after 1 day in human serum at 37 C

| Binder | EC50 [pM] |
| --- | --- |
| B5 | 60.5 |
| B8 | 94.4 |
| B9 | 72.5 |
| B11 | 86 |

Molecular target: T1, human prostate specific membrane …
Experiment: FMAT cell binding, huPSMA CHO cells, after 0 days in human serum at 37 C

| Binder | EC50 [pM] |
| --- | --- |
| B5 | 89.2 |
| B8 | 74.1 |
| B9 | 63.9 |
| B11 | 90.2 |

Molecular target: T1, human prostate specific membrane …
Experiment: FMAT cell binding, huPSMA CHO cells, after 4 days in human serum at 37 C

| Binder | EC50 [pM] |
| --- | --- |
| B5 | 73.6 |
| B8 | 62.8 |
| B9 | 84.4 |
| B11 | 100 |

Molecular target: T1, human prostate specific membrane …
Experiment: FMAT cell binding, huPSMA CHO cells, after 7 days in human serum at 37 C

| Binder | EC50 [pM] |
| --- | --- |
| B5 | 86.5 |
| B8 | 67.5 |
| B9 | 101 |
| B11 | 107 |

Molecular target: T1, human prostate specific membrane …
Experiment: FMAT cell binding, huPSMA CHO 1A10 cells, after 1 day in human serum at 37 C

| Binder | EC50 [pM] |
| --- | --- |
| B1 | 210 |

Molecular target: T1, human prostate specific membrane …
Experiment: as above
Remark: another data set of the same source

| Binder | EC50 [pM] |
| --- | --- |
| B2 | 208 |
| B3 | 243 |
| B4 | 311 |

Molecular target: T1, human prostate specific membrane …
Experiment: FMAT cell binding, huPSMA CHO 1A10 cells, after 0 days in human serum at 37 C

| Binder | EC50 [pM] |
| --- | --- |
| B1 | 230 |

Molecular target: T1, human prostate specific membrane …
Experiment: FMAT cell binding, huPSMA CHO 1A10 cells, after 4 days in human serum at 37 C

| Binder | EC50 [pM] |
| --- | --- |
| B1 | 228 |

Molecular target: T1, human prostate specific membrane …
Experiment: FMAT cell binding, huPSMA CHO 1A10 cells, after 7 days in human serum at 37 C

| Binder | EC50 [pM] |
| --- | --- |
| B1 | 238 |

Molecular target: T1, human prostate specific membrane …
Experiment: FMAT cell binding, huPSMA CHO 1A10 cells, after 0 days in human serum at 37 C
Remark: another data set of the same source

| Binder | EC50 [pM] |
| --- | --- |
| B2 | 234 |
| B3 | 165 |
| B4 | 304 |

Molecular target: T1, human prostate specific membrane …
Experiment: FMAT cell binding, huPSMA CHO 1A10 cells, after 4 days in human serum at 37 C
Remark: another data set of the same source

| Binder | EC50 [pM] |
| --- | --- |
| B2 | 227 |
| B3 | 242 |
| B4 | 319 |

Molecular target: T1, human prostate specific membrane …
Experiment: FMAT cell binding, huPSMA CHO 1A10 cells, after 7 days in human serum at 37 C
Remark: another data set of the same source

| Binder | EC50 [pM] |
| --- | --- |
| B2 | 278 |
| B3 | 236 |
| B4 | 313 |

Molecular target: T2, cynomolgus PSMA, full-length, on CHO …
Experiment: FMAT Mirrorball direct cell binding, purified His-tagged VH titrated on CHO cells expressing cynomolgus PSMA, FL2 median binding signal [panel cynoPSMA-CHO binding]

| Binder | EC50 (read off the curve) [pM] |
| --- | --- |
| B15 | ~1000 |
